In patent US20200270125A1 (OMEROS, published 2020):
Numbering of substitutions follows the chain as printed.

T1: human MASP-3 CCP1-CCP2-SP fragment (human)
T1 chain: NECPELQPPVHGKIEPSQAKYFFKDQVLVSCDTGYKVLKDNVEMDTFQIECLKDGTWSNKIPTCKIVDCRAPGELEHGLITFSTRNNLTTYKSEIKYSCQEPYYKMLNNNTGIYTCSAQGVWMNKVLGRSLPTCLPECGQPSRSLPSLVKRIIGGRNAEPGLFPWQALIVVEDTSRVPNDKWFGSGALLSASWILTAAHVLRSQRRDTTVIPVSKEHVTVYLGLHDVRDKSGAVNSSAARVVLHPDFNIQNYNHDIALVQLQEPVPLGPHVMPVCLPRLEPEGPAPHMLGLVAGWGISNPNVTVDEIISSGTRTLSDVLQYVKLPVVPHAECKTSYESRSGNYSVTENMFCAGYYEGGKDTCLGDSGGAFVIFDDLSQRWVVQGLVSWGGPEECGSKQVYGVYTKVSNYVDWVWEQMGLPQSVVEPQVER

T2: human MASP-3 (construct not stated) (human)
T2 chain: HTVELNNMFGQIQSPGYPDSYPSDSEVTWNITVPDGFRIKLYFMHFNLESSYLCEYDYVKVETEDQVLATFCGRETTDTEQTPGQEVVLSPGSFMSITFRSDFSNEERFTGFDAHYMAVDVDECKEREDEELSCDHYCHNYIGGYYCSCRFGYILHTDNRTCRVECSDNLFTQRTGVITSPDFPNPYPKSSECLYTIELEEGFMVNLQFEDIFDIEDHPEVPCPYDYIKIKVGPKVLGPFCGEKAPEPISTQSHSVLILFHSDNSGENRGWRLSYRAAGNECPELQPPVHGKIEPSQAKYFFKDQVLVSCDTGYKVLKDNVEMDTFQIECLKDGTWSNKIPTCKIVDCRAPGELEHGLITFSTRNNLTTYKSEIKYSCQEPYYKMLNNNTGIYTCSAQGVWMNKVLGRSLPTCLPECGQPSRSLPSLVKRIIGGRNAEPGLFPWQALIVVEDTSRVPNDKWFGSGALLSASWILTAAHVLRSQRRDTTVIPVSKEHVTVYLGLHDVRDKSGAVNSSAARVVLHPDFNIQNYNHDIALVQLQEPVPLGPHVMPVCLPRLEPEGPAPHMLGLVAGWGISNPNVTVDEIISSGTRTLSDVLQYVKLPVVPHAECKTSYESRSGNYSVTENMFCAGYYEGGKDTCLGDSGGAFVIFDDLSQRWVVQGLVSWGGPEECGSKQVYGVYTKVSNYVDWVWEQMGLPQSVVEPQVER

T3: recombinant full-length mouse MASP-3 (mouse)
T3 construct: Entry is with leader; also called mouse full length MASP-3
T3 chain: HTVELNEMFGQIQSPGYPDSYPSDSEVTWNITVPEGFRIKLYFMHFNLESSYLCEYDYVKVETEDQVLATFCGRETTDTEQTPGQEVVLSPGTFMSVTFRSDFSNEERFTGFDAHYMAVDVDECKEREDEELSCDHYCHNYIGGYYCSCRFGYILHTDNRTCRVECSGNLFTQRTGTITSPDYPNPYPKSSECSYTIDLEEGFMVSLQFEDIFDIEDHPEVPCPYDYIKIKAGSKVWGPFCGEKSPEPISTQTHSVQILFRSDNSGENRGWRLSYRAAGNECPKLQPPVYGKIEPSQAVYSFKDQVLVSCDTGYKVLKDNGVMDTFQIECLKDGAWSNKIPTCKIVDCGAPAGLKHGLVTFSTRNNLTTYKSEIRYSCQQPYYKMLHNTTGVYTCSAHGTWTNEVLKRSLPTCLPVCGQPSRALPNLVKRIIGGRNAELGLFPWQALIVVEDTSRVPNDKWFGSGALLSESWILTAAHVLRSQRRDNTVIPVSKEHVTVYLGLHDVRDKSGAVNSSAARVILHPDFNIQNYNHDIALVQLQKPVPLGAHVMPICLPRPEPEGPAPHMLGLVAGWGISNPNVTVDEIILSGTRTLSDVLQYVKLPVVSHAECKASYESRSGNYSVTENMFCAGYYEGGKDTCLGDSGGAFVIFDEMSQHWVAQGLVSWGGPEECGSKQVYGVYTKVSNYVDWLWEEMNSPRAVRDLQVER

T4: recombinant human MASP-1A (S646A, CCP1-CCP2-SP fragment) (human, UniProt P48740 298-699, limits assumed)
T4 chain: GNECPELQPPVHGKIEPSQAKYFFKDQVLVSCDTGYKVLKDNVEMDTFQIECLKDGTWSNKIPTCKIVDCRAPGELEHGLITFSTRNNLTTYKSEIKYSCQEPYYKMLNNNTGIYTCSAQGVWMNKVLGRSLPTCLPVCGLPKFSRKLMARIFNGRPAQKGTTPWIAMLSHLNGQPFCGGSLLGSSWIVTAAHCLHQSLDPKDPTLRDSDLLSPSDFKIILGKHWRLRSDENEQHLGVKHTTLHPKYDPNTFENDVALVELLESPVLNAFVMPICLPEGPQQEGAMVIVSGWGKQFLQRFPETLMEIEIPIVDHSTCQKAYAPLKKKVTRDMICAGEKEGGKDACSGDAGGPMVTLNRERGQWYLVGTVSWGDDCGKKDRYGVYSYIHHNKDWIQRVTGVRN

B1: MASP-3 mAb 1A10 (mouse-human chimeric IgG4) (antibody, V domains shown)
VH: QVQLKQSGPELVKPGASVKLSCKASGYTFTSNDINWVKQRPGQGLEWIGWIYPRDGTTKYNEKFTDKATLTVDVSSSTAFMELHRLTSEDSAVYFCSSVEDSYWGQGTLVTVSS
VL: DIVMTQSPSSLAVSAGEKVTMSCKSSQSLLISRTRKNYLSWYQQKPGQSPKLLIYWASTRESGVPDRFTGSGSGTDFTLTISSVQAEDLAVYYCKQSYNLYTFGGGTKLEIKR
notes: The light chain of 1A10 was not identified
B2: MASP-3 mAb 1F3 (mouse-human chimeric IgG4) (antibody, V domains shown)
VH: B1 VH with T57S, T58I, F80Y, R85S, S98G
VL: B1 VL with K18R
B3: MASP-3 mAb 4B6 (mouse-human chimeric IgG4) (antibody, V domains shown)
VH: B1 VH with K63E, R85S
VL: B1 VL
B4: MASP-3 mAb 1G4 (mouse-human chimeric IgG4) (antibody, V domains shown)
VH: QVQLKQSGAELMKPGASVKLACKATGYTFTGYWIEWIKQRPGQGLEWIGEMLPGSGSTHYNEKFKGKATFTADTSSNTAYMQLSGLTTEDSAIYYCVRSIDYWGQGTTLTVSS
VL: DVLMTQTPLSLPVSLGEQASISCRSSQSLVQSNGNTYLHWYLQKPGQSPKLLIYKVSNRFSGVPDRFSGSGSGTDFTLKISRVEAEDLGVYFCSQSTHVPPTFGGGTKLEIKR
B5: MASP-3 mAb 2D7 (mouse-human chimeric IgG4) (antibody, V domains shown)
VH: EVQLQQSGPELVKPGASVKVSCKASGYTLTDYYMNWVKQSHGKSLEWIGDVNPNNDGTTYNQKFKGRATLTVDKSSNTASMELRSLTSEDSAVYYCAICPFYYLGKGTHFDYWGQGTSLTVSS
VL: DIQMTQTPASLSASLGDRVTISCRASQDISNFLNWYQQKPNGTVKLLVFYTSRLHSGVPSRFSGSGSGAEHSLTISNLEQEDVATYFCQQGFTLPWTFGGGTKVEIKR

What was measured:
[1] = biological target: T1, human MASP-3 CCP1-CCP2-SP fragment; assay: cell-based or functional assay
[2] = biological target: T2, human MASP-3 (construct not stated); assay: cell-based or functional assay
[3] = biological target: T2, human MASP-3 (construct not stated); assay: not described at this place
[4] = biological target: T1, human MASP-3 CCP1-CCP2-SP fragment; assay: sandwich ELISA, MASP-3 CCP1-CCP2-SP captured by αM3-259
Method: (§1) The plate was then washed (PBS-T, 0.05%) and the candidate MASP-3 antibodies were added followed by incubation for one hour at room temperature. The plate was washed (PBS-T, 0.05%) and a detection antibody was added (mouse anti-human kappa-HRP, SouthernBiotech #9230-05) for one hour at room temperature. After another wash (PBS-T, 0.05%) the plate was developed (5 minutes) with OPT EIA TMB (BD Biosciences #555214). Absorbance reading at A450 was measured using the Spectramax M5e plate reader.

[5] = biological target: T3, recombinant full-length mouse MASP-3; assay: sandwich ELISA, full-length mouse MASP-3 captured by αM3-259
Method: as §1

[6] = biological target: T5, recombinant human MASP-2 (CCP1-CCP2-SP fragment) (human, UniProt O00187 298-686, limits assumed); assay: ELISA: recombinant MASP-2 (CCP1-CCP2-SP) coated directly on the plate, A450
T5 construct: domain: CCP1-CCP2-SP fragment
Method: as §1

[7] = biological target: T4, recombinant human MASP-1A (S646A, …); assay: ELISA: recombinant MASP-1A (S646A, CCP1-CCP2-SP) coated directly on the plate, A450
Method: as §1

[8] = biological target: T2, human MASP-3 (construct not stated); assay: cell-based or functional assay

T5 sequence (O00187 298-686 limits assumed): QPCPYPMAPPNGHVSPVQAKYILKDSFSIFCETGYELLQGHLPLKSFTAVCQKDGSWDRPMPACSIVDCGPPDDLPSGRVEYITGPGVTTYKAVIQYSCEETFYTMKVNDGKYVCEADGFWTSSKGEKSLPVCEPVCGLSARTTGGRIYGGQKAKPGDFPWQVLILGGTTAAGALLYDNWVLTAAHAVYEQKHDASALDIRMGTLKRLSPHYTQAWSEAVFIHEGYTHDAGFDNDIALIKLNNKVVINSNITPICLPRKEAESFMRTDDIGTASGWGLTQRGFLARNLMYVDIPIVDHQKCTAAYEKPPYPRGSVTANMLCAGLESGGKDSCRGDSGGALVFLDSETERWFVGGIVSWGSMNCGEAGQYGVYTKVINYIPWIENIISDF

Binder | inhibition of MASP-3-dependent fluorogenic tripeptide (BOC-V-P-R-AMC) cleavage [1] [nM] | Inhibition of Rabbit Erythrocyte Lysis (IC50 nM), 10% factor D-depleted human serum [2] [nM] | binding affinity [3] [pM] | EC50 [4] [nM] | EC50 [5] [nM] | binding result [6] | binding result [7] | Inhibition of Factor Bb Deposition on Zymosan (IC50 nM), 10% factor D-depleted human serum with pro-factor D [8] [nM]
B1 | 29.8 | 0.2 | ≤ 500 | 0.241 | 0.15 | no binding (tested: about 20 nM (log10 about 1.3)) | no binding (tested: about 20 nM (log10 about 1.3)) | 
B2 | 33 | 0.2 | ≤ 500 | 0.236 | 0.111 | no binding (tested: about 20 nM (log10 about 1.3)) | no binding (tested: about 20 nM (log10 about 1.3)) | 0.1
B3 | 26 | 0.2 | ≤ 500 | 0.211 | 0.188 | no binding (tested: about 20 nM (log10 about 1.3)) | no binding (tested: about 20 nM (log10 about 1.3)) | 0.2
B4 | 29.6 | 2.7 | ≤ 500 | 0.177 | 3.7 | no binding (tested: about 20 nM (log10 about 1.3)) | no binding (tested: about 20 nM (log10 about 1.3)) | 1.1
B5 |  | 5.4 | ≤ 500 | 0.122 |  | no binding (tested: about 20 nM (log10 about 1.3)) | no binding (tested: about 20 nM (log10 about 1.3)) | 3.5
